Like-named read-outs stand apart in the source and are kept apart here.
T1: FcgRIIa R (human, UniProt P12318 34-217)
T1 construct: extracellular domain; also called FcγRIIa R; FcγRIIa type R; not shown: His tag attached to the C terminus
T1 sequence (looked up): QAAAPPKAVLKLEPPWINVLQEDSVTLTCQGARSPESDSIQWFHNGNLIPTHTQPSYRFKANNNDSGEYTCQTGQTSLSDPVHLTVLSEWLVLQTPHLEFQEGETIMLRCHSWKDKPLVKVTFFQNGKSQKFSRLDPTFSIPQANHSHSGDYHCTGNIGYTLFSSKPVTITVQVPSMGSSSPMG

T2: FcgRIIa H (human, UniProt P12318 34-217)
T2 construct: extracellular domain; also called FcγRIIa H; FcγRIIa type H; not shown: His tag attached to the C terminus
T2 sequence (looked up): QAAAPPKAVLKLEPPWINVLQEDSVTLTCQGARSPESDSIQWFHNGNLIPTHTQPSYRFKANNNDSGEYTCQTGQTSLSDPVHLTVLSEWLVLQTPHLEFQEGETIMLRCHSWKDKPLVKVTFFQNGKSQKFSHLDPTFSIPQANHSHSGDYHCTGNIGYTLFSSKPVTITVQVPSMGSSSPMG

T3: FcgRIIb (human, UniProt P31994 43-217)
T3 construct: extracellular domain; Expressed in FreeStyle293 cells and purified; used as analyte in Biacore; also called FcγRIIb; CD32B; not shown: His tag attached to the C terminus
T3 sequence (looked up): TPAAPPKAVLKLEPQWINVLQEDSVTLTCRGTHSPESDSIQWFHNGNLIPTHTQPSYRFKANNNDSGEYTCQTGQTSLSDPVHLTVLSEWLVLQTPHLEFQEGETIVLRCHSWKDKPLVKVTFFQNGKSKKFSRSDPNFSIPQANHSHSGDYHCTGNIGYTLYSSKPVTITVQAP


How the values were obtained:
Assay in all cases: SPR (Biacore), antibody captured on chip, FcgR extracellular domain as analyte
FcgRIIa R [1] = target: T1, FcgRIIa R
Method: (§1) Analysis of interaction between obj ective antibody and the FcγR was carried out using Biacore T100 (GE Healthcare), Biacore T200, Biacore A100, and Biacore 4000. HBS-EP+ (GE Healthcare) was used as the running buffer, and the measurement temperature was set to 25° C. Chips produced by immobilizing the antigen peptide by the amine coupling method to a Series S sensor Chip CM5 (GE Healthcare), chips produced by allowing preliminarily biotinylated antigen peptides to interact with and immobilize onto a Series S Sensor Chip SA (certified) (GE Healthcare), chips produced by immobilizing Protein L (ACTIGEN, BioVision) to Series S Sencor Chip CM5 (GE Healthcare), or chips produced by immobilizing Protein A/G (Thermo Scientific) to Series S Sencor Chip CM5 (GE Healthcare) were used. Antibodies of interest were captured onto these chips, and allowed to interact to each FcγR diluted with running buffer. To regenerate and repeatedly use the chip, the antibodies captured onto the chip were washed off by reacting 10 mM glycine-HCl, pH 1.5.

FcgRIIIa F [2] = target: T4, FcgRIIIa F (human, UniProt P08637 17-208)
T4 construct: extracellular domain; also called FcγRIIIa F; not shown: His tag attached to the C terminus
Method: as §1

FcgRIIa H [3] = target: T2, FcgRIIa H
Method: as §1

FcgRIIIa V [4] = target: T5, FcgRIIIa V (human, UniProt P08637 17-208)
T5 construct: extracellular domain; also called FcγRIIIa V; not shown: His tag attached to the C terminus
Method: as §1

FcgRIa = target: T6, FcgRIa (human, UniProt P12314 16-292)
T6 construct: extracellular domain; Expressed in FreeStyle293 cells and purified; used as analyte in Biacore; also called FcγRIa; FcγRI; not shown: His tag attached to the C terminus
Method: (§2) H240-Kn113 (SEQ ID NO: 92) resulting from introduction of Y234E and Y235N into H240-Kn072, H240-Kn115 (SEQ ID NO: 93) resulting from introduction of S239M into H240-Kn072, and H240-Kn125 (SEQ ID NO: 94) resulting from introduction of Y235Q and S239M into H240-Kn072 were prepared according to the method described in Reference Example 1.
as §1

FcgRIIa R [5] = target: T1, FcgRIIa R; remark: listed apart in the source
Method: as §2, §1

FcgRIIb = target: T3, FcgRIIb
Method: as §2, §1

FcgRIIIa F [6] = target: T4, FcgRIIIa F; remark: listed apart in the source
Method: as §2, §1

FcgRIIa H [7] = target: T2, FcgRIIa H; remark: listed apart in the source
Method: as §2, §1

FcgRIIIa V [8] = target: T5, FcgRIIIa V; remark: listed apart in the source
Method: as §2, §1

T5 sequence (P08637 17-208 F176V limits assumed): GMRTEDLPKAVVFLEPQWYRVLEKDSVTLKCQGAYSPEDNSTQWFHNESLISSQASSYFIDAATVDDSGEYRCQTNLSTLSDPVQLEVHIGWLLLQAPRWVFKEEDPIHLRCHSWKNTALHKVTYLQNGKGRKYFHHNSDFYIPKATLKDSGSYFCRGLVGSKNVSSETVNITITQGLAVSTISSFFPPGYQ
T4 sequence (P08637 17-208): as the sequence (P08637 17-208 F176V limits assumed) above, with V160F counted along it
T6 sequence (P12314 16-292): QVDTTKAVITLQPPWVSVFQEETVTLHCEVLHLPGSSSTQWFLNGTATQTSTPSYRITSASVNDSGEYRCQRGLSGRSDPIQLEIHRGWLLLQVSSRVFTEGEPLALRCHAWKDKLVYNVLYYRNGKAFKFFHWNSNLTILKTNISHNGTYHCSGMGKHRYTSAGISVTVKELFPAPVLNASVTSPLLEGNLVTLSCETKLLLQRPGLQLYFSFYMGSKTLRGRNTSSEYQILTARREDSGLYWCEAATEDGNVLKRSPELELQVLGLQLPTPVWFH

Kd (FcgRIIa R [1]) [nM]	Kd (FcgRIIIa F [2]) [nM]	Kd (FcgRIIa H [3]) [nM]	Kd (FcgRIIIa V [4]) [nM]	Kd (FcgRIa) [nM]	Kd (FcgRIIa R [5]) [nM]	Kd (FcgRIIb) [nM]	Kd (FcgRIIIa F [6]) [nM]	Kd (FcgRIIa H [7]) [nM]	Kd (FcgRIIIa V [8]) [nM]	Binder
950	960	2100	340							H240-Kn067/H240-Hl136/L73-k0 (antibody, human IgG1, kappa, Anti-EREG IgG1 called homodimerized: both H chains (knob and hole) carry L234Y/L235Y/G236W/H268D/S298A/A327D; also called H240-Kn067/H240-HI136/L73-k0) heavy 1: QDQLVQSGAEVKKPGASVKVSCKASGFNIKDTYIQWVRQAPGQGLEWMGRIDPLRKQTKYREKFEGRVTITADTSTNTAYMELSSLRSEDTAVYYCVRSGREFDYWGQGTLVTVSSASTKGPSVFPLAPSSKSTSGGTAALGCLVKDYFPEPVTVSWNSGALTSGVHTFPAVLQSSGLYSLSSVVTVPSSSLGTQTYICNVNHKPSNTKVDKKVEPKSCDKTHTCPPCPAPEYYWGPSVFLFPPKPKDTLMISRTPEVTCVVVDVSDEDPEVKFNWYVDGVEVHNAKTKPREEQYNATYRVVSVLTVLHQDWLNGKEYKCKVSNKDLPAPIEKTISKAKGQPREPQVCTLPPSRDELTKNQVSLWCLVKGFYPSDIAVEWESNGQPENNYKTTPPVLDSDGSFFLYSKLTVDKSRWQQGNVFSCSVMHEALHNHYTQKSLSLSP heavy 2: QDQLVQSGAEVKKPGASVKVSCKASGFNIKDTYIQWVRQAPGQGLEWMGRIDPLRKQTKYREKFEGRVTITADTSTNTAYMELSSLRSEDTAVYYCVRSGREFDYWGQGTLVTVSSASTKGPSVFPLAPSSKSTSGGTAALGCLVKDYFPEPVTVSWNSGALTSGVHTFPAVLQSSGLYSLSSVVTVPSSSLGTQTYICNVNHKPSNTKVDKKVEPKSCDKTHTCPPCPAPEYYWGPSVFLFPPKPKDTLMISRTPEVTCVVVDVSDEDPEVKFNWYVDGVEVHNAKTKPREEQYNATYRVVSVLTVLHQDWLNGKEYKCKVSNKDLPAPIEKTISKAKGQPREPQVYTLPPSRCELTKNQVSLSCAVKGFYPSDIAVEWESNGQPENNYKTTPPVLDSDGSFFLVSKLTVDKSRWQQGNVFSCSVMHEALHNHYTQKSLSLSP light: DIQMTQSPSSLSASVGDRVTITCRASQDIHKYIAWYQQKPGQAPRLLIQYTSTLQPGVPSRFSGSGSGTDYTFTISSLQPEDIATYYCLQYEQLRTFGGGTKVEIKRTVAAPSVFIFPPSDEQLKSGTASVVCLLNNFYPREAKVQWKVDNALQSGNSQESVTEQDSKDSTYSLSSTLTLSKADYEKHKVYACEVTHQGLSSPVTKSFNRGEC
				0.21	600	5000	1.7	350	0.62	H240-Kn113/H240-Hl076/L73-k0 (antibody, human IgG1, kappa, Heterodimerized anti-EREG IgG1: Kn113 is H240-Kn072 with Y234E and Y235N) heavy 1: QDQLVQSGAEVKKPGASVKVSCKASGFNIKDTYIQWVRQAPGQGLEWMGRIDPLRKQTKYREKFEGRVTITADTSTNTAYMELSSLRSEDTAVYYCVRSGREFDYWGQGTLVTVSSASTKGPSVFPLAPSSKSTSGGTAALGCLVKDYFPEPVTVSWNSGALTSGVHTFPAVLQSSGLYSLSSVVTVPSSSLGTQTYICNVNHKPSNTKVDKKVEPKSCDKTHTCPPCPAPEENWGPSVFLFPPKPKDTLMISRTPEVTCVVVDVSDEEPEVKFNWYVDGVEVHNAKTKPREEQYNATYRVVSVLTVLHQDWLNGKEYKCKVSNKALPAPIEKTISKAKGQPREPQVCTLPPSRDELTKNQVSLWCLVKGFYPSDIAVEWESNGQPENNYKTTPPVLDSDGSFFLYSKLTVDKSRWQQGNVFSCSVMHEALHNHYTQKSLSLSP heavy 2: QDQLVQSGAEVKKPGASVKVSCKASGFNIKDTYIQWVRQAPGQGLEWMGRIDPLRKQTKYREKFEGRVTITADTSTNTAYMELSSLRSEDTAVYYCVRSGREFDYWGQGTLVTVSSASTKGPSVFPLAPSSKSTSGGTAALGCLVKDYFPEPVTVSWNSGALTSGVHTFPAVLQSSGLYSLSSVVTVPSSSLGTQTYICNVNHKPSNTKVDKKVEPKSCDKTHTCPPCPAPELLGGPSVFLFPPKPKDTLMISRTPEVTCVVVDVSHEEPEVKFNWYVDGVEVHNAKTKPREEQYNSTYRVVSVLTVLHQDWLNGKEYKCKVSNDALPMPIEETISKAKGQPREPQVYTLPPSRCELTKNQVSLSCAVKGFYPSDIAVEWESNGQPENNYKTTPPVLDSDGSFFLVSKLTVDKSRWQQGNVFSCSVMHEALHNHYTQKSLSLSP light: DIQMTQSPSSLSASVGDRVTITCRASQDIHKYIAWYQQKPGQAPRLLIQYTSTLQPGVPSRFSGSGSGTDYTFTISSLQPEDIATYYCLQYEQLRTFGGGTKVEIKRTVAAPSVFIFPPSDEQLKSGTASVVCLLNNFYPREAKVQWKVDNALQSGNSQESVTEQDSKDSTYSLSSTLTLSKADYEKHKVYACEVTHQGLSSPVTKSFNRGEC
450	120	160	14							H240-Kn133/H240-Hl068/L73-k0 (antibody, human IgG1, kappa, Anti-EREG IgG1 called homodimerized: both H chains carry D270E/K326D/A330K/K334E; also called H240-Kn133/H240-HI068/L73-k0) heavy 1: QDQLVQSGAEVKKPGASVKVSCKASGFNIKDTYIQWVRQAPGQGLEWMGRIDPLRKQTKYREKFEGRVTITADTSTNTAYMELSSLRSEDTAVYYCVRSGREFDYWGQGTLVTVSSASTKGPSVFPLAPSSKSTSGGTAALGCLVKDYFPEPVTVSWNSGALTSGVHTFPAVLQSSGLYSLSSVVTVPSSSLGTQTYICNVNHKPSNTKVDKKVEPKSCDKTHTCPPCPAPELLGGPSVFLFPPKPKDTLMISRTPEVTCVVVDVSHEEPEVKFNWYVDGVEVHNAKTKPREEQYNSTYRVVSVLTVLHQDWLNGKEYKCKVSNDALPKPIEETISKAKGQPREPQVCTLPPSRDELTKNQVSLWCLVKGFYPSDIAVEWESNGQPENNYKTTPPVLDSDGSFFLYSKLTVDKSRWQQGNVFSCSVMHEALHNHYTQKSLSLSP heavy 2: QDQLVQSGAEVKKPGASVKVSCKASGFNIKDTYIQWVRQAPGQGLEWMGRIDPLRKQTKYREKFEGRVTITADTSTNTAYMELSSLRSEDTAVYYCVRSGREFDYWGQGTLVTVSSASTKGPSVFPLAPSSKSTSGGTAALGCLVKDYFPEPVTVSWNSGALTSGVHTFPAVLQSSGLYSLSSVVTVPSSSLGTQTYICNVNHKPSNTKVDKKVEPKSCDKTHTCPPCPAPELLGGPSVFLFPPKPKDTLMISRTPEVTCVVVDVSHEEPEVKFNWYVDGVEVHNAKTKPREEQYNSTYRVVSVLTVLHQDWLNGKEYKCKVSNDALPKPIEETISKAKGQPREPQVYTLPPSRCELTKNQVSLSCAVKGFYPSDIAVEWESNGQPENNYKTTPPVLDSDGSFFLVSKLTVDKSRWQQGNVFSCSVMHEALHNHYTQKSLSLSP light: DIQMTQSPSSLSASVGDRVTITCRASQDIHKYIAWYQQKPGQAPRLLIQYTSTLQPGVPSRFSGSGSGTDYTFTISSLQPEDIATYYCLQYEQLRTFGGGTKVEIKRTVAAPSVFIFPPSDEQLKSGTASVVCLLNNFYPREAKVQWKVDNALQSGNSQESVTEQDSKDSTYSLSSTLTLSKADYEKHKVYACEVTHQGLSSPVTKSFNRGEC

— patent US20180155451A1 (published 2018)
